Assay results reported in US20150344570A1 (published 2015).

T1: FcγRIIa H (FcγRIIa, allotype with His at position 131), extracellular domain with C-terminal His tag (human, UniProt P12318 34-217)
T1 construct: extracellular domain; also called FcgRIIa H; 2aH; not shown: His tag at the C terminus
T1 sequence (looked up): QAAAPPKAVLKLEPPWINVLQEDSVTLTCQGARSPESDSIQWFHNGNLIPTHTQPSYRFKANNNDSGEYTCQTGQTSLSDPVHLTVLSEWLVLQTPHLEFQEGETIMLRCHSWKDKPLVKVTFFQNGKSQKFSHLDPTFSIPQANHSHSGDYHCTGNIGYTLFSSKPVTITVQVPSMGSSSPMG

T2: FcγRIIb, extracellular domain with C-terminal His tag (human, UniProt P31994 43-217)
T2 construct: extracellular domain; also called FcgRIIb; 2b; not shown: His tag at the C terminus
T2 sequence (looked up): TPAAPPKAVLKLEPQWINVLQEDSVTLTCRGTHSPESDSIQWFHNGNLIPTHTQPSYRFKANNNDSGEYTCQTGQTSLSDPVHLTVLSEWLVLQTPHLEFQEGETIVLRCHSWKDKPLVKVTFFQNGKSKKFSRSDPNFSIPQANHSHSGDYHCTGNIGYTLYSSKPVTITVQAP

T3: FcgRIIaH (human, UniProt P12318 34-217)
T3 construct: extracellular domain; also called FcγRIIa H; FcgRIIa type H; not shown: His tag attached to the C terminus
T3 sequence (looked up): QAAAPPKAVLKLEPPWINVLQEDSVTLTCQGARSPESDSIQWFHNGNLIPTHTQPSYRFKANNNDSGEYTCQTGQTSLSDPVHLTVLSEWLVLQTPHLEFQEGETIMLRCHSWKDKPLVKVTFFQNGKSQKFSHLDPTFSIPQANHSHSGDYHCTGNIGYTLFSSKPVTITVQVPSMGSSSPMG

T4: FcgRIIaR (human, UniProt P12318 34-217)
T4 construct: extracellular domain; also called FcγRIIa R; FcgRIIa type R; not shown: His tag attached to the C terminus
T4 sequence (looked up): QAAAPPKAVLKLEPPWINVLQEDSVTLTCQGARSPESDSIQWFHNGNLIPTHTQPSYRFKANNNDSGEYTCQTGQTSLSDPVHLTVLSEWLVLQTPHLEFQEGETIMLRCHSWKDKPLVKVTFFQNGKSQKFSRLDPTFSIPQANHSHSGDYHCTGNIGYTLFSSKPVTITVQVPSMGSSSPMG

T5: FcgRIIb (human, UniProt P31994 43-217)
T5 construct: extracellular domain; also called FcγRIIb; 2b; not shown: His tag attached to the C terminus
T5 sequence (looked up): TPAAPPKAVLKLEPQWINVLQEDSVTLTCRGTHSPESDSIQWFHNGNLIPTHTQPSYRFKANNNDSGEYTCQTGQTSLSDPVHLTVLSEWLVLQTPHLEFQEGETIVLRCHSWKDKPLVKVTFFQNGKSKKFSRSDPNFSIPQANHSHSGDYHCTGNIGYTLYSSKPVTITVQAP

B1: GpH7-A5/GpH7-B3 variant A327_03V/GpL16-k0 (antibody, human IgG1, kappa)
heavy 1: not shown
heavy 2: not shown
light: DIVMTQSPLSLPVTPGEPASISCQASESLVHSNRNTYLHWYLQKPGQSPQLLIYKVSNRFSGVPDRFSGSGSGTDFTLKISRVEAEDVGVYYCSQNTHVPPTFGQGTKVEIERTVAAPSVFIFPPSDEQLKSGTASVVCLLNNFYPREAKVQWKVDNALQSGNSQESVTEQDSKDSTYSLSSTLTLSKADYEKHKVYACEVTHQGLSSPVTKSFNRGEC
notes: Heterodimerized anti-glypican-3 IgG1; mutation in one H chain only; also called He Ab
B2: GpH7-A5/GpH7-B3 variant A327_08L/GpL16-k0 (antibody, human IgG1, kappa)
heavy 1: not shown
heavy 2: not shown
light: DIVMTQSPLSLPVTPGEPASISCQASESLVHSNRNTYLHWYLQKPGQSPQLLIYKVSNRFSGVPDRFSGSGSGTDFTLKISRVEAEDVGVYYCSQNTHVPPTFGQGTKVEIERTVAAPSVFIFPPSDEQLKSGTASVVCLLNNFYPREAKVQWKVDNALQSGNSQESVTEQDSKDSTYSLSSTLTLSKADYEKHKVYACEVTHQGLSSPVTKSFNRGEC
notes: as for B1
B3: GpH7-A5/GpH7-B3 variant A327_07I/GpL16-k0 (antibody, human IgG1, kappa)
heavy 1: not shown
heavy 2: not shown
light: DIVMTQSPLSLPVTPGEPASISCQASESLVHSNRNTYLHWYLQKPGQSPQLLIYKVSNRFSGVPDRFSGSGSGTDFTLKISRVEAEDVGVYYCSQNTHVPPTFGQGTKVEIERTVAAPSVFIFPPSDEQLKSGTASVVCLLNNFYPREAKVQWKVDNALQSGNSQESVTEQDSKDSTYSLSSTLTLSKADYEKHKVYACEVTHQGLSSPVTKSFNRGEC
notes: as for B1
B4: H240-Kn222/H240-Hl068/L73-k0 (antibody, human IgG1, kappa)
heavy 1: QDQLVQSGAEVKKPGASVKVSCKASGFNIKDTYIQWVRQAPGQGLEWMGRIDPLRKQTKYREKFEGRVTITADTSTNTAYMELSSLRSEDTAVYYCVRSGREFDYWGQGTLVTVSSASTKGPSVFPLAPSSKSTSGGTAALGCLVKDYFPEPVTVSWNSGALTSGVHTFPAVLQSSGLYSLSSVVTVPSSSLGTQTYICNVNHKPSNTKVDKKVEPKSCDKTHTCPPCPAPEAYWGPMVFLFPPKPKDTLMISRTPEVTCVVVDVSDEDPEVKFNWYVDGVEVHNAKTKPREEQYNATYRVVSVLTVLHQDWLNGKEYKCKVSNKDLPAPIEKTISKAKGQPREPQVCTLPPSRDELTKNQVSLWCLVKGFYPSDIAVEWESNGQPENNYKTTPPVLDSDGSFFLYSKLTVDKSRWQQGNVFSCSVMHEALHNHYTQKSLSLSP
heavy 2: QDQLVQSGAEVKKPGASVKVSCKASGFNIKDTYIQWVRQAPGQGLEWMGRIDPLRKQTKYREKFEGRVTITADTSTNTAYMELSSLRSEDTAVYYCVRSGREFDYWGQGTLVTVSSASTKGPSVFPLAPSSKSTSGGTAALGCLVKDYFPEPVTVSWNSGALTSGVHTFPAVLQSSGLYSLSSVVTVPSSSLGTQTYICNVNHKPSNTKVDKKVEPKSCDKTHTCPPCPAPELLGGPSVFLFPPKPKDTLMISRTPEVTCVVVDVSHEEPEVKFNWYVDGVEVHNAKTKPREEQYNSTYRVVSVLTVLHQDWLNGKEYKCKVSNDALPKPIEETISKAKGQPREPQVYTLPPSRCELTKNQVSLSCAVKGFYPSDIAVEWESNGQPENNYKTTPPVLDSDGSFFLVSKLTVDKSRWQQGNVFSCSVMHEALHNHYTQKSLSLSP
light: DIQMTQSPSSLSASVGDRVTITCRASQDIHKYIAWYQQKPGQAPRLLIQYTSTLQPGVPSRFSGSGSGTDYTFTISSLQPEDIATYYCLQYEQLRTFGGGTKVEIKRTVAAPSVFIFPPSDEQLKSGTASVVCLLNNFYPREAKVQWKVDNALQSGNSQESVTEQDSKDSTYSLSSTLTLSKADYEKHKVYACEVTHQGLSSPVTKSFNRGEC
notes: Anti-epiregulin heterodimerized IgG1, knobs-into-holes
B5: H240-Kn224/H240-Hl068/L73-k0 (antibody, human IgG1, kappa)
heavy 1: QDQLVQSGAEVKKPGASVKVSCKASGFNIKDTYIQWVRQAPGQGLEWMGRIDPLRKQTKYREKFEGRVTITADTSTNTAYMELSSLRSEDTAVYYCVRSGREFDYWGQGTLVTVSSASTKGPSVFPLAPSSKSTSGGTAALGCLVKDYFPEPVTVSWNSGALTSGVHTFPAVLQSSGLYSLSSVVTVPSSSLGTQTYICNVNHKPSNTKVDKKVEPKSCDKTHTCPPCPAPEHYWGPMVFLFPPKPKDTLMISRTPEVTCVVVDVSDEDPEVKFNWYVDGVEVHNAKTKPREEQYNATYRVVSVLTVLHQDWLNGKEYKCKVSNKDLPAPIEKTISKAKGQPREPQVCTLPPSRDELTKNQVSLWCLVKGFYPSDIAVEWESNGQPENNYKTTPPVLDSDGSFFLYSKLTVDKSRWQQGNVFSCSVMHEALHNHYTQKSLSLSP
heavy 2: QDQLVQSGAEVKKPGASVKVSCKASGFNIKDTYIQWVRQAPGQGLEWMGRIDPLRKQTKYREKFEGRVTITADTSTNTAYMELSSLRSEDTAVYYCVRSGREFDYWGQGTLVTVSSASTKGPSVFPLAPSSKSTSGGTAALGCLVKDYFPEPVTVSWNSGALTSGVHTFPAVLQSSGLYSLSSVVTVPSSSLGTQTYICNVNHKPSNTKVDKKVEPKSCDKTHTCPPCPAPELLGGPSVFLFPPKPKDTLMISRTPEVTCVVVDVSHEEPEVKFNWYVDGVEVHNAKTKPREEQYNSTYRVVSVLTVLHQDWLNGKEYKCKVSNDALPKPIEETISKAKGQPREPQVYTLPPSRCELTKNQVSLSCAVKGFYPSDIAVEWESNGQPENNYKTTPPVLDSDGSFFLVSKLTVDKSRWQQGNVFSCSVMHEALHNHYTQKSLSLSP
light: DIQMTQSPSSLSASVGDRVTITCRASQDIHKYIAWYQQKPGQAPRLLIQYTSTLQPGVPSRFSGSGSGTDYTFTISSLQPEDIATYYCLQYEQLRTFGGGTKVEIKRTVAAPSVFIFPPSDEQLKSGTASVVCLLNNFYPREAKVQWKVDNALQSGNSQESVTEQDSKDSTYSLSSTLTLSKADYEKHKVYACEVTHQGLSSPVTKSFNRGEC
notes: as for B4
B6: H240-Kn223/H240-Hl068/L73-k0 (antibody, human IgG1, kappa)
heavy 1: QDQLVQSGAEVKKPGASVKVSCKASGFNIKDTYIQWVRQAPGQGLEWMGRIDPLRKQTKYREKFEGRVTITADTSTNTAYMELSSLRSEDTAVYYCVRSGREFDYWGQGTLVTVSSASTKGPSVFPLAPSSKSTSGGTAALGCLVKDYFPEPVTVSWNSGALTSGVHTFPAVLQSSGLYSLSSVVTVPSSSLGTQTYICNVNHKPSNTKVDKKVEPKSCDKTHTCPPCPAPEGYWGPMVFLFPPKPKDTLMISRTPEVTCVVVDVSDEDPEVKFNWYVDGVEVHNAKTKPREEQYNATYRVVSVLTVLHQDWLNGKEYKCKVSNKDLPAPIEKTISKAKGQPREPQVCTLPPSRDELTKNQVSLWCLVKGFYPSDIAVEWESNGQPENNYKTTPPVLDSDGSFFLYSKLTVDKSRWQQGNVFSCSVMHEALHNHYTQKSLSLSP
heavy 2: QDQLVQSGAEVKKPGASVKVSCKASGFNIKDTYIQWVRQAPGQGLEWMGRIDPLRKQTKYREKFEGRVTITADTSTNTAYMELSSLRSEDTAVYYCVRSGREFDYWGQGTLVTVSSASTKGPSVFPLAPSSKSTSGGTAALGCLVKDYFPEPVTVSWNSGALTSGVHTFPAVLQSSGLYSLSSVVTVPSSSLGTQTYICNVNHKPSNTKVDKKVEPKSCDKTHTCPPCPAPELLGGPSVFLFPPKPKDTLMISRTPEVTCVVVDVSHEEPEVKFNWYVDGVEVHNAKTKPREEQYNSTYRVVSVLTVLHQDWLNGKEYKCKVSNDALPKPIEETISKAKGQPREPQVYTLPPSRCELTKNQVSLSCAVKGFYPSDIAVEWESNGQPENNYKTTPPVLDSDGSFFLVSKLTVDKSRWQQGNVFSCSVMHEALHNHYTQKSLSLSP
light: DIQMTQSPSSLSASVGDRVTITCRASQDIHKYIAWYQQKPGQAPRLLIQYTSTLQPGVPSRFSGSGSGTDYTFTISSLQPEDIATYYCLQYEQLRTFGGGTKVEIKRTVAAPSVFIFPPSDEQLKSGTASVVCLLNNFYPREAKVQWKVDNALQSGNSQESVTEQDSKDSTYSLSSTLTLSKADYEKHKVYACEVTHQGLSSPVTKSFNRGEC
notes: as for B4

Experiments:
[1] = molecular target: T1, FcγRIIa H (FcγRIIa, allotype with His …); experiment: SPR (Biacore); He/Con_2aH divided by He/Con_2b (FcγRIIb)
[2] = molecular target: T1, FcγRIIa H (FcγRIIa, allotype with His …); experiment: SPR (Biacore), relative binding vs GpH7-A5/GpH7-B3/GpL16-k0
[3] = molecular target: T2, FcγRIIb, extracellular domain with …; experiment: as above
[4] = molecular target: T3, FcgRIIaH; experiment: SPR (Biacore); KD of H240-Kn033/H240-Hl033/L73-k0 divided by KD of this variant
[5] = molecular target: T4, FcgRIIaR; experiment: as above
[6] = molecular target: T6, FcgRIIIaF (human, UniProt P08637 17-208); experiment: as above
T6 construct: extracellular domain; also called FcγRIIIa F; 3aF; not shown: His tag attached to the C terminus

[7] = molecular target: T7, FcgRIIIaV (human, UniProt P08637 17-208); experiment: as above
T7 construct: extracellular domain; also called FcγRIIIa V; 3aV; not shown: His tag attached to the C terminus

[8] = molecular target: T5, FcgRIIb; experiment: as above

T7 sequence (P08637 17-208 F176V limits assumed): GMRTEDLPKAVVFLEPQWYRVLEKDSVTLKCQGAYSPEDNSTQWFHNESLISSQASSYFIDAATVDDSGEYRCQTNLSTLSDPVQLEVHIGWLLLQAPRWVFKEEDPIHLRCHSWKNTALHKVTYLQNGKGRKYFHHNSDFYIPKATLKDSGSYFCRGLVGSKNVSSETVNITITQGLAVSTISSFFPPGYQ
T6 sequence (P08637 17-208): as the sequence (P08637 17-208 F176V limits assumed) above, with V160F counted along it

Binder | He_2aH/2b (IIaH/IIb) [1] [ratio] | He/Con_2aH [2] | He/Con_2b [3] | fold 2aH [4] [fold] | fold 2aR [5] [fold] | fold 3aF [6] [fold] | fold 3aV [7] [fold] | fold 2b [8] [fold]
B1 | 0.54 | 51 % of HeCon Ab (=100) | 94.7 % of HeCon Ab (=100) | – | – | – | – | –
B2 | 0.74 | 46.9 % of HeCon Ab (=100) | 63.1 % of HeCon Ab (=100) | – | – | – | – | –
B3 | 0.46 | 58.4 % of HeCon Ab (=100) | 127 % of HeCon Ab (=100) | – | – | – | – | –
B4 | – | – | – | 10.6 | 26.4 | 87.9 | 88.9 | 17.4
B5 | – | – | – | 9.1 | 13.7 | 72.5 | 90.6 | 9.2
B6 | – | – | – | 5.5 | 11.9 | 69 | 84.2 | 11.8
